Test results from patent US20050026834A1.
Values joined by “and” are separate entries in the source; they are usually repeats but may differ in a detail not shown here. Equal values may be shown once.

Biological target: T1, rabbit GH receptor (rabbit) (UniProt P19941)
T1 sequence (looked up): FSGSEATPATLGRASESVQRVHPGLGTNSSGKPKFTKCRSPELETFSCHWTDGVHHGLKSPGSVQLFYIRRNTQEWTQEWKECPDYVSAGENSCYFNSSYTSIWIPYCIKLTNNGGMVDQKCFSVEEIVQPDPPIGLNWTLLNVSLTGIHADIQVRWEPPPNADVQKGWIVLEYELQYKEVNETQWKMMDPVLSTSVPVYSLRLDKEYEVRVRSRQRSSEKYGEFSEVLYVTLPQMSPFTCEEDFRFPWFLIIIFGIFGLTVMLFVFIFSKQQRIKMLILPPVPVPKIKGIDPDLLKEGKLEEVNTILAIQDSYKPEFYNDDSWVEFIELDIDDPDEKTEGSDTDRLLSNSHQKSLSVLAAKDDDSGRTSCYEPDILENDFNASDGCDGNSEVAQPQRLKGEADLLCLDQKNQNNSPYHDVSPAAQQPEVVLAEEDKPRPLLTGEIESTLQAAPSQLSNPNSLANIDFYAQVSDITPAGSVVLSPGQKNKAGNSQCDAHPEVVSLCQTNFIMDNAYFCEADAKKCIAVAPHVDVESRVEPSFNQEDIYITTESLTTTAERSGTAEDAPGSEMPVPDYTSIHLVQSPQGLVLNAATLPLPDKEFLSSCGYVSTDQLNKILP
Experiment: cell-based or functional assay

Mean EC50 (ng/ml), proliferation of GH-R4 cells (MTS) [ng/mL] | Substance | also measured
– | PEG-S144C hGH (mono-PEGylated S144C) (from UniProt P01241 27-217) (ligand) | EC50 of single experiments, cell proliferation assay (Example 1): 40 ng/mL and 45 ng/mL
1.6 | hGH cysteine mutein S144C (from UniProt P01241 27-217) (ligand) | –
1.4 | hGH cysteine mutein T3C, disulfide-linked homodimer (from UniProt P01241 27-217) (ligand) | –
– | hGH cysteine mutein T148C (from UniProt P01241 27-217) (ligand) | Mean EC50 (ng/ml), proliferation of GH-R4 cells (MTS); T148C-lotA: 0.5 ng/mL; Mean EC50 (ng/ml), proliferation of GH-R4 cells (MTS); T148C-lotB: 2.5 ng/mL
0.8 | wild-type rhGH (secreted from E. coli with the stII signal sequence) (from UniProt P01241 27-217) (ligand) | –
